# Measurements reported in US20230159619A1, “COMPOSITIONS AND METHODS FOR REGULATING IMMUNE SYSTEM ACTIVITY” (Olema Pharmaceuticals, Inc., priority 2017, published 2023).
# B1: LCK(1-266): dominant negative LCK signaling moiety, SEQ ID NO: 17 (protein)
# chain: MGCGCSSHPEDDWMENIDVCENCHYPIVPLDGKGTLLIRNGSEVRDPLVTYEGSNPPASPLQDNLVIALHSYEPSHDGDLGFEKGEQLRILEQSGEWWKAQSLTTGQEGFIPFNFVAKANSLEPEPWFFKNLSRKDAERQLLAPGNTHGSFLIRESESTAGSFSLSVRDFDQNQGEVVKHYKIRNLDNGGFYISPRITFPGLHELVRHYTNASDGLCTRLSRPCQTQKPQKPWWEDEWEVPRETLKLVERLGAGQFGEVWMGYYNG
# B2: Zap70dnm: polypeptide including a nuclear export signal and a dominant negative Zap-70 moiety, SEQ ID NO: 10 (protein)
# chain: MNELALKLAGLDINKTMPDPAAHLPFFYGSISRAEAEEHLKLAGMADGLFLLRQCLRSLGGYVLSLVHDVRFHHFPIERQLNGTYAIAGGKAHCGPAELCEFYSRDPDGLPCNLRKPCNRPSGLEPQPGVFDCLRDAMVRDYVRQTWKLEGEALEQAIISQAPQVEKLIATTAHERMPWYHSSLTREEAERKLYSGAQTDGKFLLRPRKEQGTYALSLIYGKTVYHYLISQDKAGKYCIPEGTKFDTLWQLVEYLKLKADGLIYCLKEACPNSSASNASGAAAPTLPAHPSTLT
# B3: ZAP70dn(1-278): dominant negative signaling moiety, ZAP70 amino acids 1-278, lacks a functional kinase domain, SEQ ID NO: 2 (protein)
# chain: MPDPAAHLPFFYGSISRAEAEEHLKLAGMADGLFLLRQCLRSLGGYVLSLVHDVRFHHFPIERQLNGTYAIAGGKAHCGPAELCEFYSRDPDGLPCNLRKPCNRPSGLEPQPGVFDCLRDAMVRDYVRQTWKLEGEALEQAIISQAPQVEKLIATTAHERMPWYHSSLTREEAERKLYSGAQTDGKFLLRPRKEQGTYALSLIYGKTVYHYLISQDKAGKYCIPEGTKFDTLWQLVEYLKLKADGLIYCLKEACPNSSASNASGAAAPTLPAHPSTLT
# Columns and labels:
# Assay type in all cases: cell-based, human
# NFAT-Luciferase reporter [1] = assay: NFAT-Luciferase reporter assay with LCK(1-266) constructs (Example 11); settings: Jurkat E6.1 cells, α-CD3 and α-CD28, with or without endoxifen, compared to empty vector controls
# Description: (§1) To provide a means for assessing T cell activity, a construct containing a reporter gene, such as firefly luciferase (Luc), under the control of an NFAT response element can be used, as described, e.g., in Example 3. In the present Example, Jurkat E6.1 cells were transiently transfected with an NFAT-Luciferase reporter construct, as well as one of (a) empty vector control; (b) an expression construct encoding LCK(1-266); and (c) an expression construct encoding LCK(1-266)-ER(T12). Transient transfections were performed using LTX and PLUS transfection reagent (ThermoFisher Scientific) according to manufacturer's protocols.
# Transfected cells were treated in the absence or presence of 1:80 dilution of Immunocult CD3/CD28 tetrameric antibody mixture (StemCell Technologies, Canada), which stimulated T-cell activity. Stimulated cells were then further treated with RPMI 1640 media plus 4.8% FBS stripped with charcoal dextran (ThermoFisher Scientific), either without Z-endoxifen or with 100 nM Z-endoxifen (Axon-Medchem). Luciferase activity (luminescence) was measured and reported as percent induction of NFAT-Luciferase.
# NFAT-Luciferase reporter [2] = assay: NFAT-Luciferase reporter assay, endoxifen dose response (Example 4); settings: Jurkat E6.1 cells, anti-TCR antibody clone 305, endoxifen 0.05-1000 nM, 6 hours
# Description: To examine whether the concentration of endoxifen affected the level of inhibition of T cell activity by an endoxifen-responsive dominant negative Zap-70 polypeptide, Jurkat E6.1 cells (purchased from ATCC (Manassas, Va.)) were transiently transfected with an NFAT-Luciferase reporter construct and a test construct of (1) a vector encoding a dominant negative Zap70 moiety, as described in Example 2 (“Zap70dnm”), or (2) a vector encoding an endoxifen-responsive dominant negative Zap70 polypeptide, including an ER(T2) domain operatively linked to a dominant negative Zap70 moiety, as described in Example 1 (“Zap70dnm-ER(T2)”). The transient transfections were performed using LTX and PLUS transfection reagent (ThermoFisher Scientific) according to manufacturer's protocols.
# Transfected cells were treated with an anti-TCR antibody, clone 305, which stimulated T cell activity. […]
# After 6 hours, luciferase activity was assayed with Bright-Glo substrate according to manufacturer's protocols (Promega). Luminescence was detected on the Varioskan Lux (ThermoFisher Scientific) plate reader at a 1 second interval. The luminescence was measured and reported in relative light units (RLU). […]
# NFAT-Luciferase reporter [3] = assay: NFAT-Luciferase reporter assay in transiently transfected Jurkat E6.1 cells (Example 3)
# Description: One outcome of T cell activation is the expression of Nuclear Factor of Activated T cells (NFAT) transcription factors. Accordingly, a construct containing a reporter gene, such as firefly luciferase (Luc), under the control of an NFAT response element can be used to assess T cell activity. Such a construct can either be transiently transfected into cells (e.g., Jurkat cells, which are an immortalized line of human T cells) or stably integrated into a cell line (e.g., a derivative Jurkat cell line). These reporter genes can be used to measure activation, or inhibition, of T cell activation pathways.
# To examine whether an endoxifen-responsive dominant negative Zap-70 polypeptide could inhibit T cell activity resulting in NFAT-luciferase expression, Jurkat E6.1 cells (purchased from ATCC (Manassas, Va.)) were transiently transfected with an NFAT-Luciferase reporter construct and a test construct of (1) a control vector (“vector”), (2) a vector encoding a dominant negative Zap70 moiety, as described in Example 2 (“Zap70dnm”), or (3) a vector encoding an endoxifen-responsive dominant negative Zap70 polypeptide, including an ER(T2) domain operatively linked to a dominant negative Zap70 moiety, as described in Example 1 (“Zap70dnm-ER(T2)”). The transient transfections were performed using LTX and PLUS transfection reagent (ThermoFisher Scientific) according to manufacturer's protocols.
# Transfected cells were treated in the absence or presence of 1:30 Immunocult™ CD3/CD28/CD2 tetrameric antibody mixture (StemCell Technologies, Canada) (“α-TCR”), which stimulates T cell activity. […]
# After 19 hours, luciferase activity was assayed with Bright-Glo substrate according to manufacturer's protocols (Promega). Luminescence was detected on the Varioskan Lux (ThermoFisher Scientific) plate reader at a 1 second interval. The luminescence was measured and reported in relative light units (RLU). […]
# NFAT-Luciferase reporter [4] = assay: NFAT-Luciferase reporter assay with ZAP70dn(1-278) constructs (Example 10); settings: Jurkat E6.1 cells, αTCR+αCD28, with or without endoxifen, compared to empty vector controls
# Description: as §1, with “immune pathway” for “T cell”, “construct” for “construct,”, “vector;” for “vector control;”, “ZAP70dn(1-278);” for “LCK(1-266); and”, “ZAP70dn(1-278)-ER(T2); and (d) an expression construct encoding ZAP70dn(1-278)-ER(T12).” for “LCK(1-266)-ER(T12).”
# A first set of transfected cells was treated in the absence or presence of 1:30 dilution of Immunocult CD3/CD28/CD2 tetrameric antibody mixture (StemCell Technologies, Canada), which stimulated T-cell activity. […] Luciferase activity (luminescence) was measured and reported as a percentage induction of NFAT-Luciferase.
# A further set of transfected cells was treated in the absence or presence of 0.25 μg/ml C305 (αTCR, Sigma-Aldrich) plus 2 μg/ml αCD28.2 (Biolegend), which stimulated T-cell activity. […] Luciferase activity (luminescence) was measured and reported in relative light units (RLU).
molecule,measurement,setting,value
B1,luciferase reporter expression (percent induction of NFAT-Luciferase),NFAT-Luciferase reporter [1],substantially reduced expression of luciferase reporter
B2,luciferase expression from the NFAT-luciferase construct,NFAT-Luciferase reporter [2],low
same,luciferase expression from the NFAT-luciferase construct,NFAT-Luciferase reporter [3]; vehicle (not treated with α-TCR or endoxifen),no luciferase expression was detected
same,luciferase expression from the NFAT-luciferase construct,"NFAT-Luciferase reporter [3]; α-TCR plus 100 nM endoxifen, 19 hours",low and nearly equivalent to the luciferase expression observed from sample 5
same,luciferase expression from the NFAT-luciferase construct,"NFAT-Luciferase reporter [3]; α-TCR, no endoxifen, 19 hours",low
B3,luciferase reporter expression (RLU),NFAT-Luciferase reporter [4],substantially reduced expression of luciferase reporter
